These results are taken from patent US20190194345A1 (UNIVERSITY OF VIRGINIA PATENT FOUNDATION, published 2019).

In experiment [1] the target is T1, SAS1B C-terminus extracellular domain (aa 160-431) (human, UniProt Q6HA08 160-431).
T1 construct: also called C-term extracellular domain
T1 sequence: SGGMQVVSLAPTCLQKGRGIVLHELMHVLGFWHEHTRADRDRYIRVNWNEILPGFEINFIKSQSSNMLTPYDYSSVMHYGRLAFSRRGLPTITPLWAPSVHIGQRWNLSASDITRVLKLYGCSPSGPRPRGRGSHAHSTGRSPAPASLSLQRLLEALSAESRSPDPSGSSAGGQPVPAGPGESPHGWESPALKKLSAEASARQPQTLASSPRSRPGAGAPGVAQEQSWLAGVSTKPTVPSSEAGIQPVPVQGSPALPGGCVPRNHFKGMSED
Kind of experiment: western blot (FIG. 22). For orientation: A western blot detects proteins with antibodies after separation by electrophoresis.

Experiment [2] has as its target T2, SAS1B extracellular domain (aa 164-431) polypeptide (human, UniProt Q6HA08 164-431).
T2 construct: mammalian cell-expressed recombinant; also called truncated SAS1B
T2 sequence: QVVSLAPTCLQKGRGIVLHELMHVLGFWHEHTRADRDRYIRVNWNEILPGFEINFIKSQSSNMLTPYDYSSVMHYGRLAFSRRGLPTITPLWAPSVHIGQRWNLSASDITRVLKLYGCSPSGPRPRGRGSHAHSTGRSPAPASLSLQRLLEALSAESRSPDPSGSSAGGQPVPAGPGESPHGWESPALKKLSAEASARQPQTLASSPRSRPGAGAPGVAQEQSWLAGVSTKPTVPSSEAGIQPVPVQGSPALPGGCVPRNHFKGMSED
The experiment in a line: western blot, mammalian cell-expressed recombinant SAS1B. How it is done: SAS1B monoclonal antibodies were analyzed with mammalian cell-expressed recombinant SAS1B by western blotting.

The target in experiment [3] is T3, SAS1B on the surface of live cancer cells (human, UniProt Q6HA08 24-431).
T3 sequence: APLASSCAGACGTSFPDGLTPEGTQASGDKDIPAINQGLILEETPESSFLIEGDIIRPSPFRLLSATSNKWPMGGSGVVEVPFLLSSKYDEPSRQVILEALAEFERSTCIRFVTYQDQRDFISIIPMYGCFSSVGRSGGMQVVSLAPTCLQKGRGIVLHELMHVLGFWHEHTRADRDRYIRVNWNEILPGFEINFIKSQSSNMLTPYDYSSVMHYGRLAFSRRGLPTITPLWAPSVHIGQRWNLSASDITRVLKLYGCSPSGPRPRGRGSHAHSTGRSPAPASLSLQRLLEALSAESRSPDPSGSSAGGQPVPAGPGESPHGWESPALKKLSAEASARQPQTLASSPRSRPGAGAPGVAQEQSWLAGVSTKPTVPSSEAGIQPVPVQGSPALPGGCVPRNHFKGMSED
The experiment in a line: cell-based or functional assay.

In a further experiment the target is T4, mouse SAS1B (mouse, UniProt Q6HA09 24-435, limits assumed).
T4 sequence (looked up): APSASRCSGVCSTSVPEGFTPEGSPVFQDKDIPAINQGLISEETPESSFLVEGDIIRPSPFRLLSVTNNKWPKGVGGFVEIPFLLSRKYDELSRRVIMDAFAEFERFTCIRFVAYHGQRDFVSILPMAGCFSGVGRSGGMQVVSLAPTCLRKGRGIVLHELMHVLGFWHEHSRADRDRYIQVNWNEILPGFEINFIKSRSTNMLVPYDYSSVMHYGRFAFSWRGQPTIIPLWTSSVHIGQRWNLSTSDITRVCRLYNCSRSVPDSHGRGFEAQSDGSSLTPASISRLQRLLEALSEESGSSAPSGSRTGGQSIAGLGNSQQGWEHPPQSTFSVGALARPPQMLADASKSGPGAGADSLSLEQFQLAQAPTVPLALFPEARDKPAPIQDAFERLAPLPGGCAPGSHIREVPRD
Kind of experiment: summary table (Table 1).

B1: anti-human SAS1B murine monoclonal antibody SB1 (antibody, IgG2a, V domains shown)
VH: EVQLQQSGPELVKPGSSVKISCKASGYTFTDYNMDWVKQSHGKSLEWIGAINPNNGGTSYNQKFKGKATLTVDKSSSTAYMELRSLTSEDSAVYYCATNEYWGQGTTLTVSS
VL: NIVMTQSPKSMSMSVGERVTLSCKASENVGTYVSWYQQKPEQSPKLLIYGASNRYTGVPDRFTGSGSATDFTLTISSVQAEDLADYHCGQSYSYPWTFGGGTKLEIK
notes: also called SB1 mAb
As for B1, the binding result in experiment [1] and in experiment [2] was “no binding” throughout.

B2: anti-human SAS1B murine monoclonal antibody SB4 (antibody, IgG2a, V domains shown)
VH: EVQLQQSGPELVKPGSSVKISCKPSGYTFTDYNMVWMKQSHGKSLEWIGAINPNNGGTTYNQKFKGKATLTVDKSSSTAYMELRSLTSEDSAVYYCAPNWDWFAYWGQGTLVTVSA
VL: DVLMTQTPLSLPVSLGDQASISCRSSQSILHSNGNTYLEWYLQKPGQSPKLLIYKVSNRFSGVPDRFSGSGSGTDFTLKISRVEAEDLGVYYCFQGSHVPFTFGSGTKLEIK
notes: Mouse hybridoma antibody, isotype IgG2a-k; also called SB4 mAb
Turning to B2, in experiment [3], the “percent of cells killed at 0.1 nM mAb, ADC assay with anti-mouse Fab-cleavable-Duocarmycin, pancreatic cancer cells 366, ~72 h, cellular ATP” value (“percent of cells killed at 0.1 nM mAb” below) was determined as 33%; the “percent of cells killed at 1 nM mAb, ADC assay with 15 nM anti-mouse Fab-cleavable-Duocarmycin, MPanc96 pancreatic cancer cells, ~72 h, cellular ATP” value was 64%; the “percent of cells killed at 1 nM mAb, ADC assay with anti-mouse Fab-cleavable-Duocarmycin, pancreatic cancer cells 366, ~72 h, cellular ATP” value worked out at 77%. In the experiment with mouse SAS1B, the binding result was “no binding”. In addition, the binding result in experiment [1] is recorded as “no binding”. The binding result in experiment [2] was “no binding”.

B3: anti-human SAS1B murine monoclonal antibody SB7 (antibody, IgG2b, V domains shown)
VH: EVQLQQSGPELVKPGSSVKISCKPSGYTFTDYNMVWMKQSHGKSLEWIGAINPNNGGTTYNQKFKGKATLTVDKSSSTAYMELRSLTSEDSAVYYCAPNWDWFAYWGQGTLVTVSA
VL: DVLMTQIPLSLPVSLGDQASISCRSSQSILHSNGNTYLEWYLQKPGQSPKLLIYKVSNRFSGVPDRFSGSGSGTDFTLKISRVEAEDLGVYYCFQGSHVPFTFGSGTKLEIK
B3: the binding result (in the experiment with mouse SAS1B; in experiment [1]; in experiment [2]) was “no binding” throughout.

B4: anti-human SAS1B murine monoclonal antibody SB6 (antibody, IgG2b, V domains shown)
VH: EVQLQQSGPELVKPGSSVKISCKPSGYTFTDYNMVWMKQSHGKSLEWIGAINPNNGGTTYNQKFKGKATLTVDKSSSTAYMELRSLTSEDSAVYYCAPNWDWFAYWGQGTLVTVSA
VL: DVLMTQIPLSLPVSLGDQASISCRSSQSILHSNGNTYLEWYLQKPGQSPKLLIYKVSNRFSGVPDRFSGSGSGTDFTLKISRVEAEDLGVYYCFQGSHVPFTFGSGTKLEIK
Take B4: the binding result (with mouse SAS1B; in experiment [1]; in experiment [2]) was “no binding” throughout.

B5: anti-human SAS1B murine monoclonal antibody SB3 (antibody, IgG2b, V domains shown)
VH: EVQLQQSGPELVKPGSSVKISCKASGYTFTDYNMVWVKQSHGKSLEWIGAVNPNNGGTSYNQKFKGKATLTVDKSSSTAYMELRSLTSEDSAVYYCVPNWDWFAYWGQGTLVTVSA
VL: DVLMTQTPLSLPVSLGDQASISCRSSQSLVHSNGNTYLEWYLQKPGQSPNLLIYKVSNRFSGVPDRFSGSGSGTDFTLKISRVEAEDLGVYYCFQGSHVPFTFGSGTKLEIK
notes: also called SB3 mAb
Take B5: the binding result (with mouse SAS1B; in experiment [1]; in experiment [2]) was “no binding” each time.

B6: anti-human SAS1B murine monoclonal antibody SB2 (antibody, IgG2b, V domains shown)
VH: EVQLQQSGPELVKPGSSVKISCKASGYTFTDYNMVWVKQSHGKSLEWIGAVNPNNGGTSYNQKFKGKATLTVDKSSSTAYMELRSLTSEDSAVYYCVPNWDWFAYWGQGTLVTVSA
VL: DVLMTQTPLSLPVSLGDQASISCRSSQSLVHSNGNTYLEWYLQKPGQSPNLLIYKVSNRFSGVPDRFSGSGSGTDFTLKISRVEAEDLGVYYCFQGSHVPFTFGSGTKLEIK
notes: also called SB2 mAb
With B6, in experiment [3], the “percent of cells killed at 0.1 nM mAb” value amounted to 59%; the “percent of cells killed at 1 nM mAb, ADC assay with 15 nM anti-mouse Fab-cleavable-Duocarmycin, MPanc96 pancreatic cancer cells, ~72 h, cellular ATP” value was determined as 80%; the “percent of cells killed at 1 nM mAb, ADC assay with anti-mouse Fab-cleavable-Duocarmycin, pancreatic cancer cells 366, ~72 h, cellular ATP” value amounted to 88%; the “viability at 0.01 nM mAb, ADC assay with Fab-anti-mouse IgG Fc conjugated to Duocarmycin DM (cleavable linker), uterine cancer cells” value is 66%. Further, the binding result in the experiment with mouse SAS1B was “no binding”. The binding result in experiment [1] is given as “no binding”. In addition, in experiment [2], the binding result was “no binding”.

B7: anti-human SAS1B murine monoclonal antibody SB5 (antibody, IgG2b, V domains shown)
VH: EVQLQQSGPELVKPGSSVKISCKPSGYTFTDYNMVWMKQSHGKSLEWIGAINPNNGGTTYNQKFKGKATLTVDKSSSTAYMELRSLTSEDSAVYYCAPNWDWFAYWGQGTLVTVSA
VL: DVLMTQIPLSLPVSLGDQASISCRSSQSILHSNGNTYLEWYLQKPGQSPKLLIYKVSNRFSGVPDRFSGSGSGTDFTLKISRVEAEDLGVYYCFQGSHVPFTFGSGTKLEIK
notes: Mouse hybridoma antibody, isotype IgG2b-k; also called SB5 mAb
For B7, in experiment [3], the “percent of cells killed at 0.1 nM mAb” value was 49%; the “percent of cells killed at 1 nM mAb, ADC assay with 15 nM anti-mouse Fab-cleavable-Duocarmycin, MPanc96 pancreatic cancer cells, ~72 h, cellular ATP” value was 57%; the “percent of cells killed at 1 nM mAb, ADC assay with anti-mouse Fab-cleavable-Duocarmycin, pancreatic cancer cells 366, ~72 h, cellular ATP” value is 76%; the “viability at 0.01 nM mAb, ADC assay with Fab-anti-mouse IgG Fc conjugated to Duocarmycin DM (cleavable linker), uterine cancer cells” value worked out at 87%. The binding result with mouse SAS1B is “no binding”. Further, the binding result in experiment [1] was “no binding”. Also, the binding result in experiment [2] is reported as “no binding”.

What is called viability is a per cent measure of how many cells are alive, often set against a control. Read a low viability as a greater loss of cells.
